This is an account of results in the DeepSol protein solubility set.

The data set can be described thus: soluble on expression in E. coli; label from the status in PepcDB or PDB records.
Consider “STKLTGYVWDGCAASGMKLSSVAIMARLADFSNDEGVCWPSIETIARQIGAGMSTVRTAIARLEAEGWLTRKARRQGDGSSPHCAVVDEYHEHATDALYTTMLTGMGARRQPLMWAITTAGYNIEGPCYDKRREVIEMLNGSVPNDELFGIIYTVDEGDDWTDPQVLEKANPNIGVSVYREFLLSQQQRAKNNARLANVFKTKHLNIWASARSAYFNLVSWQSCEDKSLTLEQFEGQPCILAFDLARKLDMNSMARLYTREIDGKTHYYSVAPRFWVPYDTVYSVEKNEDRRTAERFQKWVEMGVLTVTDGAEVDYRYILEEAKAANKISPVSESPIDPFGATGLSHDLADEDLNPVTIIQNYTNMSDPMKELEAAIESGRFHHDGNPIMTWCIGNVVGKTIPGNDDVVKPVKEQAENKIDGAVALIMAVGRAMLYEKEDTLSDHIESYGIRSL”, for which the “soluble on expression in E. coli” value is given as “soluble”.

For the sequence “STSPEIASLSWGQMKVKGSNTTYKDCKVWPGGSRTWDWRETGTEHSPGVQPADVKEVVEKGVQTLVIGRGMSEALKVPSSTVEYLKKHGIDVRVLQTEQAVKEYNALVAQGVRVGGVFHSTC”, the “soluble on expression in E. coli” value is “soluble”.

Consider “STTEVVMENVTAFWEEGFGELFEKAKQNNNNRKTSNGDDSLSFSNFSLLGTPVLKDINFKIERGQLLAVAGSTGAGKTSLLMMIMGELEPSEGKIKHSGRISFCSQNSWIMPGTIKENIIFGVSYDEYRYRSVIKACQLEEDISKFAEKDNIVLGEGGITLSGGQRARISLARAVYKDADLYLLDSPFGYLDVLTEKEIFESCVCKLMANKTRILVTSKMEHLKKADKILILHEGSSYFYGTFSELQNERPDFSSKLMGCDSFDQFSAERRNSILTETLHRFSLEGDAPVSENLYFQGDKDCEMKRTTLDSPLGKLELSGCEQGLHEIKLLGKGTSAADAVEVPAPAAVLGGPEPLMQATAWLNAYFHQPEAIEEFPVPALHHPVFQQESFTRQVLWKLLKVVKFGEVISYQQLAALAGNPAATAAVKTALSGNPVPILIPCHRVVSSSGAVGGYEGGLAVKEWLLAHEGHRLGKPGLG”, for which the “soluble on expression in E. coli” value is recorded as “soluble”.

“SVCKGVSGNPAKGEVFLYKHVNFQGDSWKVTGNVYDFRSVSGLNDVVSSVKVGPNTKAFIFKDDRFNGNFIRLEESSQVTDLTTRNLNDAISSMIVATFESA”: the “soluble on expression in E. coli” value is recorded as “soluble”.

Regarding “SVFKFIDLPQEEPRPSGGGKVTDLVLDNPHAQDCWPNQGHMDVQGLTVKYTEAGRSVLQNLSFTVEAGQSVGVLGRTGSGKSTLLSALLRLASTDGEISIDGVSWNSVTLQTWRKAFGVVPQKIFILTGTFRMNLDPHACHSDEELWRVAEEVGLKSVIEQFPDKLDFQLEDGGYVLSNGHKQLMCLARSILSKARILLLDEPSAYLDPITLQVLRKTLKQSFSNCTVILSEHRVEPLLECQSFLMIEGSSMKRYDSIQKLLNETSHLKQAISAAERLKLFPLHRLNSSKRPPQSQQPKITALQEEAEDEVQDTRL”, the “soluble on expression in E. coli” value is on record as “not soluble”.

Turning to “SYTLPSLPYAYDALEPHFDKQTMEIHHTKHHQTYVNNANAALESLPEFANLPVEELITKLDQLPADKKTVLRNNAGGHANHSLFWKGLKKGTTLQGDLKAAIERDFGSVDNFKAEFEKAAASRFGSGWAWLVLKGDKLAVVSTANHDSPLMGEAISGASGFPIMGLDVWEHAYYLKFQNRRPDYIKEFWNVVNWDEAAARFAAKK”, the “soluble on expression in E. coli” value is given as “soluble”.

For “TAGFYINSEISDYFWIKTEFNYVNRGYTHKEAGKTLKTNYYCIDVYPVTPAFHYKGAQIFAGPSVTLLVASNRDTLIGGEVKKIADNKLDGINRYDIGIMAGVEYEFNFGLNIGVRMVRGFTSLYEPVNSIQTQWFNQTYLFTLGYSI”, the “soluble on expression in E. coli” value is given as “not soluble”.

“TDFIWNLTWMGSTVTNKVLKLTGESPEIIKGVFSIKEGMPINTYYMAKSAGVDPATGAQLYWVYDKDDNGNITNEYISSDYQKAANSKYYSGSRIPDLYGSINTDFSYKNFDLSILGTYSIGGKVYDSLYAGSMEVMYAGNTWNKHALRRWQQPGDITDVPRIQIGGSYTTSDRFLVDASYFAIKNITLGYTIPKQWLKKAGLESVRIFGSVDNLALFSHLDGMDPQYNFKGETDYSYAPNKTYSVGFEINF”: the “soluble on expression in E. coli” value is recorded as “not soluble”.

Regarding “TDKTFFDAKMEEQAKRHAQHNNTESNLEPDIKNAPGGIRDMNQIGWIAKRHFRVNRIYDLVHLGFITEYELKVLEEAESFLWEIRHHLHLLSKRDENRLLFDHQREIAAKFGYTRAEGQPVNFAVEQFMKRYYRTAQQVSTLNEMLLAYFNESVITPRLPNYERKIEEINENFKLVDGKLAVQHHKVFSENPSAILELFYLLANHPEIEGIRARTLRLLIMAAKRID”, the “soluble on expression in E. coli” value is reported as “not soluble”.

Consider “TDQGSTGIYYISIEGLVYPIRLEKEYINSFSLSPDEQHFIASVTKPDRPSELYSIPLGQEEKQLTGANDKFVREHTISIPEEIQYATEDGVMVNGWLMRPAQMEGETTYPLILNIHGGPHMMYGHTYFHEFQVLAAKGYAVVYINPRGSHGYGQEFVNAVRGDYGGKDYDDVMQAVDEAIKRDPHIDPKRLGVTGGSYGGFMTNWIVGQTNRFKAAVTQRSISNWISFHGVSDIGYFFTDWQLEHDMFEDTEKLWDRSPLKYAANVETPLLILHGERDDRCPIEQAEQLFIALKKMGKETKLVRFPNASHNLSRTGHPRQRIKRLNYISSWFDQHL”, for which the “soluble on expression in E. coli” value is “not soluble”.

“TDTLTRDNGAVVGDNQNSQTAGAQGPVLLQDVQLLQKLQRFDRERIPERVVHARGTGVKGEFTASADISDLSKATVFKSGEKTPVFVRFSSVVHGNHSPETLRDPHGFATKFYTADGNWDLVGNNFPTFFIRDAIKFPDMVHAFKPDPRTNLDNDSRRFDFFSHVPEATRTLTLLYSNEGTPAGYRFMDGNGVHAYKLVNAKGEVHYVKFHWKSLQGIKNLDPKEVAQVQSKDYSHLTNDLVGAIKKGDFPKWDLYVQVLKPEELAKFDFDPLDATKIWPDVPEKKIGQMVLNKNVDNFFQETEQVAMAPANLVPGIEPSEDRLLQGRVFSYADTQMYRLGANGLSLPVNQPKVAVNNGNQDGALNTGHTTSGVNYEPSRLEPRPADDKARYSELPLSGTTQQAKITREQNFKQAGDLYRSYSAKEKTDLVQKFGESLADTLTESKNIMLSYLYKEDPNYGTRVAEVAKGDLSKVKSLAASLKD”: the “soluble on expression in E. coli” value is on record as “soluble”.

As for “TEHLTLAFKIERPYDKVLKTISKKNLKNYIKETFNFFKSGYMKQNYLGSENDVIELDDVANIMFYGEGEVGDNHQKFMLIFDTGSANLWVPSKKCNSSGCSIKNLYDSSKSKSYEKDGTKVDITYGSGTVKGFFSKDLVTLGHLSMPYKFIEVTDTDDLEPIYSSVEFDGILGLGWKDLSIGSIDPIVVELKNQNKIDNALFTFYLPVHDVHAGYLTIGGIEEKFYEGNITYEKLNHDLYWQIDLDVHFGKQTMEKANVIVDSGTTTITAPSEFLNKFFANLNVIKVPFLPFYVTTCDNKEMPTLEFKSANNTYTLEPEYYMNPILEVDDTLCMITMLPVDIDSNTFILGDPFMRKYFTVFDYDKESVGFAIAKN”, the “soluble on expression in E. coli” value is recorded as “soluble”.

For “TGLLLSLIALSLQAAQLTASVDRTRLNAGETVELTLETDDVTQFGKPDMSSLEASFEVRDTRQLNSLKTLDGSSQATTRWIVTLLPRETGSVIIPSLQLGELKSQPLTLQVMQSETKEPTSHLASIFIEASLDQDSVYVQAQAVLTLRVYHSVSLFDDSSLN”, the “soluble on expression in E. coli” value is given as “soluble”.

As for “THVYNYDIPQDPESYVHRIGRTGRAGATGTSVTFVTNWEMDYLRDVEHLTKKRLLPMKPPTEEEAFAGRAAMAEQSIEELVQKTDVAKFEEQVDHLLEQHDAKTLVAALLNEVTKSDASEIKVKITPERPLPR”, the “soluble on expression in E. coli” value is recorded as “not soluble”.

As for “TIYLYKNSIPSGKNKGENAILIDNKTIVEQLESAAKKEDKKSGESTTEQTQIQSKSVTEQKQPKIIGYTTTGNVHEDNKHIFPIDKLTSDRNFDRKIIVGATEETLDKSNTLQSNEAIVLPAPSKYKSTDTNKVTITQGPNIIGIHVNEKENAETQKFVDW”, the “soluble on expression in E. coli” value is on record as “soluble”.

As for “TLAVAAGTGAYLIDKRQKQKAKEPALPAKAEDGSEPISQRELSWDDVQPVDIIGLEVGYRLIPLVDRDQGGELLERVKGVRKKLSQDFGFLIPAVHIRDNLELTPNSYRITLMGVAVGEAEIRPDQELAINPGQVYGMIDGEPTMDPAFGLEAVWIREEQREHAQALGYTVVDSSTVLATHLSQLLTNNASQLIGHEEVQNLLEMLGRSAPKLVENFVPDQLQLGVVVKVLQNLLNEAIPIRDIRTIVQTLAEYSSKSQEPDILTAAVRISLKRLIVQEINGIEPELPVITLIPELEQILHQTMQASGGESAGIEPGLAERLQSSLSHATQEQELKGEPAVLLTSGVLRSTLAKFVKNTIPNLRVLSYQEIPDEKQIRIVQAVGN”, the “soluble on expression in E. coli” value was “not soluble”.

With “TLEPTQSVQNYMIQADSTEGSLQNDWLIMATKAAIQANQLDQADLLIKRLARQQLTEVQQAEWQLARATIQQKQGDYSQLLQLLNFKPWWKLPNEQWKDYYSLRADAYQSLNQPFEANRQLVAFSQYASSAEQREISSRIWMNFGSYSEYELTSLQTEPSEDVLDGWLQLAVYAKTLSGNLSQLKNTLERWLNENPSHPAAIYTPEEIQNILSLDIVKPNNTALLLPLTGKFAPQAQLIRDGFVFAMMNDRNRDPSATLTVIDTNAYSADEVKQRLINENIDFVVGPLQKENVELLQTTMDGSANSPAIPALALNIPEDVQPGTDICYLALSPEQEVAQAAKYLFSEGYSFPLILAPKGSYGERVVQAFNEEWSKYSSNKVATSYFGDKRQLQKDINDVFGLQESKQRIAQMQSLMRIKLETQPRSRRDVDAVYIVARSSELTLIKPFIEVAINPDAKPPKLFSNSRSNSGGATYEDLTGIIYSDIPLLVNPDPIVTAEMNELWADQSNMEKRLKALGMDAYKLIGELPQMKVVPGYSVSGQTGTLSIDNNCVVQRELSWAERGAL”, the “soluble on expression in E. coli” value is given as “not soluble”.

As to “TLPKPFIWAEPHFMVPKEKQVTICCQGNYGAVEYQLHFEGSLFAVDRPKPPERINKVKFYIPDMNSRMAGQYSCIYRVGELWSEPSNLLDLVVTEMYDTPTLSVHPGPEVISGEKVTFYCRLDTATSMFLLLKEGRSSHVQRGYGKVQAEFPLGPVTTAHRGTYRCFGSYNNHAWSFPSEPVKLLVTG”, the “soluble on expression in E. coli” value is reported as “soluble”.

In the case of “TLPRPFFILAPMEDVTNIVFRHVVSEAARPDVFFTEFTNTESYCHPEGIHSVRGRLTFSDDEQPMVAHIWGDKPEQFREMSIGLADMGFKGIDLNMGCPVANVAKKGKGSGLILRPETAAEIIQASKAGGLPVSVKTRLGYYDIDEWRDWLKHVFEQDIANLSIHLRTRKEMSKVDAHWELIEAIKTLRDEIAPNTLLTINGDIPDRQTGLELANKYGIDGIMIGRGIFHNPFAFEKEPREHSSKELLGL”, the “soluble on expression in E. coli” value is recorded as “not soluble”.

“TPARDWNYTAPDGTVVEGWYYLPPQFDPSKKYPMLVYYYGGTSPINRTLEGHYSLAMYAAQGYVVYTLNPSGTTGYGQEYAARHVNAWGDRTADEIIGATKEFIRTHSFVNGKKVGCFGASYGGFMTQYLQTKTDIFAAAVSHAGISSISNYWGSGYWGMGYSTVASTDSYPWNNPDLYAGHSPLFRADKIHTPLLLLHGSVDTNVPTAESVNLYNALKILGREVEFIEFTEQDHFILEPERRIRWTNSICAWFARWL”: the “soluble on expression in E. coli” value is recorded as “not soluble”.

With “TPYRAMYQYRPQNEDELELREGDRVDVMQQCDDGWFVGVSRRTQKFGTFPGNYVAPV”, the “soluble on expression in E. coli” value is listed as “soluble”.
